One block for each molecule: values may come before it.
Columns and labels:
Human TGFβ1 [1] = target: T1, Human TGFβ1 (human, UniProt P01137 279-390); test: SPR (Biacore T200), TGFβ1 amine-coupled to CM5 chip, Fab injected
T1 construct: also called Transforming Growth Factor-β1

Human TGFβ1 [2] = target: T1, Human TGFβ1
Human TGFβ1 [3] = target: T1, Human TGFβ1; test: Octet QK384, Fab from conditioned medium captured on anti-Fab-CH1 biosensors, 200 nM TGFβ1; qualitative
Method: Conditioned media (CM) was harvested 4 days post-transfection and the Octet QK384 instrument was used to calculate expression level and TGFβ1 binding in a single assay. […] Binding to anti-Fab-CH1 biosensors was measured for 2 min at 1000 rpm and 30° C. plate temperature for quantitation and capture. The sensors were then moved into wells containing 200 nM of TGFβ1 for binding assessment.

T1 sequence (P01137 279-390 limits assumed): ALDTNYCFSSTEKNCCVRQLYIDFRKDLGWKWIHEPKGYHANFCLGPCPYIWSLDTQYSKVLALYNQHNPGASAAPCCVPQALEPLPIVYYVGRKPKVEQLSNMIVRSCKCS

Kd (Human TGFβ1 [1]): 2.9 nM
koff (Human TGFβ1 [1]): 0.00208 s⁻¹
kon (Human TGFβ1 [1]): 711000 M⁻¹ s⁻¹
Molecule: GC1008 Fab

IC50 (read off the curve) (Human TGFβ1 [2]): 1 ng/mL
Molecule: GC1008 control (antibody)

binding result (Human TGFβ1 [3]): binds
B1: CAT192 A25S Fab (Fab, V domains shown)
VH: EVQLVESGGGVVQPGRSLRLSCAASGFTFSSYGMHWVRQAPGKELEWVAVISYDGSIKYYADSVKGRFTISRDNSKNTLYLQMNSLRAEDTAVYYCARTGEYSGYDTDPQYSWGQGTTVTVSS
VL: EIVLTQSPSSLSASVGDRVTITCRSSQGIGDDLGWYQQKPGKAPILLIYGTSTLQSGVPSRFSGSGSGTDFTLTINSLQPEDFATYYCLQDSNYPLTFGGGTRLEIKR
notes: Control light chain mutant in the Fv; His-tagged HC Fab, HC limits see recheck; also called A25S mutant

From US20250179163A1 (Sanofi, published 2025)
